± gives the uncertainty stated by the source.
B1: Retinoic acid receptor RXR-alpha, residues 132 to 208; numbered along this chain, P19793 (parent)
chain: KHICAICGDRSSGKHYGVYSCEGCKGFFKRTVRKDLTYTCRDNKDCLIDKRQRNRCQYCRYQKCLAMGMKREAVQEE

Variants of: B1
Assay: abundance fitness (aPCA) (normalised: wild type 0, dead -1); higher = more abundant; growth selection in yeast, the domain comes from the species named
Details: Homo sapiens

Row | Variant | abundance fitness
1 | A66L | 0.047 ± 0.028
2 | A66F | 0.015 ± 0.034
3 | A66Q | -0.031 ± 0.045
4 | T39W | -0.009 ± 0.039
5 | T39P | 0.027 ± 0.05
6 | T39V | 0.05 ± 0.03
7 | H2G | -0.005 ± 0.031
8 | H2W | -0.109 ± 0.044
9 | H2I | 0.189 ± 0.085
10 | C24I | -0.987 ± 0.074
11 | C24S | -1 ± 0.054
12 | C24A | -0.875 ± 0.051
13 | K14A | -0.027 ± 0.031
14 | K14F | 0.017 ± 0.071
15 | G26C | -0.077 ± 0.041
16 | G26N | -0.123 ± 0.04
17 | G26F | -0.138 ± 0.043
18 | G26S | -0.087 ± 0.029
19 | E76H | -0.012 ± 0.036
20 | E76R | -0.037 ± 0.036
21 | V74P | -0.002 ± 0.036
22 | V74S | -0.059 ± 0.029
23 | V74C | 0.017 ± 0.044
24 | D49P | -0.018 ± 0.077

Row | Variant | abundance fitness
25 | D49K | 0.026 ± 0.076
26 | D49T | -0.07 ± 0.093
27 | D49H | -0.011 ± 0.19
28 | C4S | -1.03 ± 0.076
29 | V32I | -0.083 ± 0.033
30 | V32A | -0.013 ± 0.026
31 | V32W | -0.211 ± 0.037
32 | G8K | -0.053 ± 0.05
33 | G8A | -0.027 ± 0.037
34 | G8P | -0.227 ± 0.036
35 | K44G | 0.052 ± 0.028
36 | K44I | 0.05 ± 0.066
37 | K44Q | -0.04 ± 0.05
38 | K44M | -0.03 ± 0.036
39 | R10F | -0.064 ± 0.031
40 | R10H | -0.051 ± 0.03
41 | R10M | -0.099 ± 0.034
42 | R10A | -0.139 ± 0.028
43 | R10T | -0.024 ± 0.026
44 | E72C | -0.047 ± 0.19
45 | T31F | -0.078 ± 0.035
46 | T31V | -0.003 ± 0.027
47 | S20D | -0.276 ± 0.036
48 | S12Q | 0.104 ± 0.064

Row | Variant | abundance fitness
49 | S12W | -0.072 ± 0.047
50 | S12H | -0.131 ± 0.082
51 | S12P | 0.062 ± 0.061
52 | S12F | -0.112 ± 0.082
53 | S12L | 0.019 ± 0.038
54 | Q75E | 0.073 ± 0.05
55 | Q75G | -0.006 ± 0.04
56 | Q75W | -0.129 ± 0.054
57 | Q75M | 0.043 ± 0.036
58 | G17N | 0.056 ± 0.068
59 | R30G | -0.087 ± 0.029
60 | R30C | -0.41 ± 0.061
61 | V18G | 0.013 ± 0.035
62 | V18L | -0.141 ± 0.029
63 | V18I | -0.142 ± 0.061
64 | K1C | -0.185 ± 0.053
65 | M69F | 0.051 ± 0.031
66 | M69S | -0.262 ± 0.032
67 | M69D | -0.733 ± 0.075
68 | M69C | -0.09 ± 0.038
69 | M69A | -0.069 ± 0.034
70 | Y38P | 0.04 ± 0.05
71 | Y38R | -0.11 ± 0.031
72 | Y38C | -0.353 ± 0.061

Row | Variant | abundance fitness
73 | I3W | -0.404 ± 0.071
74 | I3T | -0.008 ± 0.031
75 | A5G | -0.045 ± 0.027
76 | A5T | 0.045 ± 0.049
77 | A5P | -0.074 ± 0.052
78 | K50P | -0.029 ± 0.051
79 | K50T | -0.099 ± 0.065
80 | K50F | -0.008 ± 0.095
81 | K50I | -0.026 ± 0.077
82 | T37I | -0.016 ± 0.064
83 | T37R | -0.039 ± 0.028
84 | T37Y | -0.082 ± 0.066
85 | T37K | 0.066 ± 0.041
86 | C21M | -0.827 ± 0.067
87 | C21Y | -0.676 ± 0.066
88 | C21N | -0.803 ± 0.069
89 | C21T | -1.05 ± 0.092
90 | C21G | -0.956 ± 0.047
91 | C21D | -0.413 ± 0.039
92 | C21Q | -1.02 ± 0.11
93 | C40W | -0.832 ± 0.089
94 | C40Q | -0.707 ± 0.1
95 | C40G | -0.815 ± 0.052
96 | C40M | -0.621 ± 0.088

Row | Variant | abundance fitness
97 | G68E | -0.112 ± 0.057
98 | E77Q | -0.012 ± 0.055
99 | E77Y | 0.023 ± 0.044
100 | K70L | 0.01 ± 0.034
101 | K70A | -0.014 ± 0.036
102 | L65H | -0.078 ± 0.071
103 | L65K | -0.008 ± 0.046
104 | L65C | 0.044 ± 0.047
105 | L65G | -0.148 ± 0.03
106 | L65D | -0.133 ± 0.048
107 | L65R | -0.111 ± 0.032
108 | L65Y | 0.015 ± 0.078
109 | L65S | -0.061 ± 0.035
110 | L65Q | 0.021 ± 0.053
111 | R41T | 0.035 ± 0.029
112 | R41Q | 0.041 ± 0.043
113 | R41L | -0.091 ± 0.026
114 | R41E | 0.14 ± 0.05
115 | L36A | 0.031 ± 0.04
116 | L36P | -0.067 ± 0.059
117 | R51W | -0.038 ± 0.04
118 | R51G | 0.015 ± 0.028
119 | R51K | 0.082 ± 0.08
120 | M67C | -0.019 ± 0.035

Row | Variant | abundance fitness
121 | M67A | 0.009 ± 0.029
122 | I48M | 0.03 ± 0.052
123 | A73Q | -0.04 ± 0.042
124 | C46R | -0.301 ± 0.035
125 | Y16M | -0.001 ± 0.032
126 | Y16R | -0.055 ± 0.024
127 | Y16H | -0.031 ± 0.035
128 | R33M | -0.003 ± 0.039
129 | R33Y | -0.158 ± 0.042
130 | S11N | -0.084 ± 0.029
131 | S11V | -0.179 ± 0.027
132 | S11L | -0.142 ± 0.024
133 | Q57K | -0.113 ± 0.043
134 | Q57V | -0.04 ± 0.034
135 | Q57P | 0.032 ± 0.049
136 | Q57C | -0.037 ± 0.048
137 | D35G | -0.028 ± 0.25
138 | D9L | -0.708 ± 0.045
139 | D9P | -0.662 ± 0.054
140 | D9S | -0.137 ± 0.028
141 | Y58A | -0.007 ± 0.035
142 | K29V | 0.054 ± 0.033
143 | K29I | -0.163 ± 0.06
144 | C59G | -0.861 ± 0.085

Row | Variant | abundance fitness
145 | C59H | -0.066 ± 0.073
146 | C59A | -0.748 ± 0.085
147 | R71G | -0.004 ± 0.027
148 | G13T | -0.005 ± 0.049
149 | G13V | -0.067 ± 0.039
150 | L47E | 0.004 ± 0.041
151 | I6Y | -0.881 ± 0.085
152 | N43H | 0.066 ± 0.082
153 | C7Q | -0.988 ± 0.15
154 | C7P | -0.961 ± 0.093
155 | C7S | -0.944 ± 0.067
156 | C7E | -0.769 ± 0.13
157 | F28E | -0.289 ± 0.048
158 | F28V | -0.321 ± 0.037
159 | F28L | -0.316 ± 0.039
160 | F28S | -0.824 ± 0.087
161 | F28R | -0.917 ± 0.064
162 | H15V | -0.098 ± 0.026
163 | H15Y | -0.05 ± 0.037
164 | D45I | -0.123 ± 0.13
165 | D45P | -0.078 ± 0.057
166 | N54H | 0.117 ± 0.12
167 | N54D | -0.128 ± 0.25
